Article PMC3082896

Tested on: LdTOP1L/S large subunit (LdTOP1L);LdTOP1L/S small subunit (LdTOP1S) (Leishmania donovani;Leishmania donovani)
Experiment: EMSA

## GAAAAAAGACTTAGAAAAATTTTTA (double strand)
  binding signal (% of input DNA bound): 79
